Data on 31 sequences can be found in the supplement of paper PMC9170038.

This data set deals with MS2 coat protein. The data set is described as follows: apparent KD of MS2 coat protein; designed switch direction (-1 OFF switch, 1 ON switch): -1; higher = weaker reporter binding. A digest of the protocol:
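Designed RNA switches with common flanks were transcribed on Illumina chips by stalled E. coli RNA polymerase and titrated with SNAP-549-labelled MS2 coat protein, from 0.7 or 1.5 nM doubling to 3 µM, in Tris-HCl pH 7.5 buffer with KCl, MgCl2, BSA, DTT, tRNA and Tween-20. Steps lasted 0.8–1.5 h (lowest) to 10–20 min (highest). Titrations ran without input, with 200 uM small-molecule ligand, or with an oligonucleotide input. Normalised cluster fluorescence was curve-fitted, and apparent KD is the per-design median over clusters.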

Setting [1] is: input ligand: microRNA oligo, concentration not stated.
[2] abbreviates: Eterna round: R95, input ligand: microRNA oligo, concentration not stated.
[3] abbreviates: Eterna round: R95, input ligand: FMN 200 uM.
The mark [4] stands for this setting: Eterna round: R95, input ligand: none.

For “UCACGGGAUUGAGGAUAUAUAUUAAUUUUUACAAUAGAAGGCAAAUUGUUAGUUUUUUCACUUUACAUGAGGAUCACCCAUGUU [JR_ExcBG1_Sub080] (Eterna round: R96, puzzle: Exclusion NG 1)”, the “apparent KD of MS2 coat protein” value under setting [1] stood at 19.6 nM.

Regarding “UCAUGUUAGCAGGAUAUGCUAUUUAUCUUUUAUGCAGAAGGGCUUACAUGAGGAUCACCCAUGUAUUAAGUCUU [JR_E6_Sub075] (puzzle: Exclusion 6)”, the “apparent KD of MS2 coat protein” value under setting [2] is 18 nM.

Regarding “UCAUGUUUAGAGGAUAUGAUUACUUUGGAGUAAUCAGAAGGCUAGACAUGAGGAUCACCCAUGUCAUAACAUGA [Exclusion 6 - B - 15:c] (puzzle: Exclusion 6)”, the “apparent KD of MS2 coat protein” value is, setting by setting: under setting [3], 75.5 nM; under setting [2], 71.5 nM; under setting [4], 61.3 nM.

In the case of “UCCAACCCUGUGAGGAUAUCGUCCAUUUUUUGUUACGAGAAGGCACAUGAGGAUCACCCAUGUUUUUUAUUUUU [JR_BMOE4_Sub079] (puzzle: Brourd's mod of Exclusion 4)”, the “apparent KD of MS2 coat protein” value under setting [2] is 23.8 nM.

Consider “UCCUAACAUGAGGAUCACCCAUGUCAGGAUAUCUACGUCAGAACCACGUAUGUAGGCGAGAGAAGGGACAGAGG [EX1 C.14] (Eterna round: R97, puzzle: Exclusion 1)”, for which the “apparent KD of MS2 coat protein” value by setting is: (input ligand: FMN 200 uM) 21 nM; (input ligand: none) 17.4 nM.

In the case of “UCCUCACAUGAGGAUCACCCAUGUGAGGAUAUGGGCCCGGGCCCGAAAGGGCCCGGGCCCAGAAGGCACUGGGU [MoB_2] (Eterna round: R97, puzzle: Exclusion 1)”, the “apparent KD of MS2 coat protein” value came to 25 nM (input ligand: FMN 200 uM) and 56.1 nM (input ligand: none).

As for “UCCUGACAUGAGGAUCACCCAUGUGAGGAUAUGUGGAUCGAGACAACUCUCGGUCCGUGCAGAAGGCACAGGGC [EX1 A.20] (Eterna round: R97, puzzle: Exclusion 1)”, the “apparent KD of MS2 coat protein” value (input ligand: FMN 200 uM) is 28.1 nM and the “apparent KD of MS2 coat protein” value (input ligand: none) was found to be 20.3 nM.

Turning to “UCGCAGUUAGGAUAUACAUGAGGAUCACCCAUGUGGCUCCGGACCGGCAACGAAUCACGUAGAAGGGACUGCAG [Eternabot (Original) Solution 24] (Eterna round: R97, puzzle: Exclusion 3)”, the “apparent KD of MS2 coat protein” value was determined as 20.4 nM (input ligand: FMN 200 uM) and 16.8 nM (input ligand: none).

For “UCGCGCCAAGGAUAUACAUGAGGAUCACCCAUGUUGAAAGAAAAGUUGUCCGGUCCCAGUAGAAGGUGGUUCCC [Eternabot (L2) Solution 90] (Eterna round: R97, puzzle: Exclusion 3)”, the “apparent KD of MS2 coat protein” value amounted to 23.5 nM (input ligand: FMN 200 uM) and 58.4 nM (input ligand: none).

For the sequence “UCGCUCCGUGUAGGAUAUCGCCGUUCUAUUCGGCGAGAAGGACAUGAGGAUCACCCAUGUAUGUUAUUAUCACGCGUGGCGCGC [Design 56] (Eterna round: R96, puzzle: Exclusion NG 1)”, the “apparent KD of MS2 coat protein” value worked out at 18.8 nM (input ligand: FMN 200 uM), 8.79 nM under setting [1] and 15.4 nM (input ligand: none).

Take “UCGCUCCGUGUAGGAUAUCGUUGUACUCUGCGGCGAGAAGGACAUGAGGAUCACCCAUGUAUGUUAUUAUCACGCGUGGCGCAA [Design 68] (Eterna round: R96, puzzle: Exclusion NG 1)”: the “apparent KD of MS2 coat protein” value is 21.5 nM (input ligand: FMN 200 uM), 17 nM under setting [1] and 19 nM (input ligand: none).

As for “UCGCUGCGAGGAUAUACAUGAGGAUCACCCAUGUACGGGUCCGGGUCUUCGUCUAUUGGUAGAAGGCGCAGUGA [JL Laongeedie mod 8] (puzzle: Exclusion 3)”, the “apparent KD of MS2 coat protein” value under setting [2] stood at 43.6 nM.

Take “UCGCUGCGAGGAUAUACGUUCGCGCGCUUUCGUUUGCGCGUACAUGAGGAUCACCCAUGUAGAAGGCGCGCUGC [Apr-15 SS2-7] (puzzle: Exclusion 2)”: the “apparent KD of MS2 coat protein” value under setting [2] came to 13.7 nM.

Regarding “UCGGCGCGAGGAUAUGCGGUUUGUGCUUUGGGCCCUGGCGUACAUGAGGAUCACCCAUGUAGAAGGCGUGUUGC [Apr-15 SS2-49] (puzzle: Exclusion 2)”, the “apparent KD of MS2 coat protein” value under setting [2] was found to be 17.9 nM.

With “UCGUGGUAAAUCAGAAGUUUCCUGAGCGGAGGAACUUUGACAUGAGGAUCACCCAUGUUGCUUUUUGCUCAUCUUAA [JR_SV3TOV2_Sub043] (puzzle: Sensor v3, turn-off variant 2)”, the “apparent KD of MS2 coat protein” value reads like this: under setting [3], 15.3 nM; under setting [2], 41.8 nM; under setting [4], 12.9 nM.

Turning to “UCGUUCCGUGUAGGAUAUUGGCCUUCUCUGGGCCGAGAAGGACAUGAGGAUCACCCAUGUAUGUUAUUAUCACGCGUGGCGCAU [Design 84] (Eterna round: R96, puzzle: Exclusion NG 1)”, the “apparent KD of MS2 coat protein” value reads like this: (input ligand: FMN 200 uM) 181 nM; under setting [1], 22.9 nM; (input ligand: none) 25.1 nM.

Turning to “UCGUUCCGUGUAGGAUAUUGGUCUCCCUCGGGCCGAGAAGGACAUGAGGAUCACCCAUGUAUGUUAUUAUCGCGCGUGGCGCAU [Design 90] (Eterna round: R96, puzzle: Exclusion NG 1)”, the “apparent KD of MS2 coat protein” value (input ligand: FMN 200 uM) turned out to be 29.5 nM, the “apparent KD of MS2 coat protein” value under setting [1] is 17.8 nM and the “apparent KD of MS2 coat protein” value (input ligand: none) amounted to 24.1 nM.

For the sequence “UCUAGCUUUUUGCGUCAAGCAUUGAAGUCUGUGAUCGUAACAUGAGGAUCACCCAUGUAAGUUUUAUGUCGUCUUGU [JR_SV3TOV2_Sub098] (puzzle: Sensor v3, turn-off variant 2)”, the “apparent KD of MS2 coat protein” value reads like this: under setting [3], 47.8 nM; under setting [2], 41.4 nM; under setting [4], 63.3 nM.

With “UCUCACUCAGGAUAUCUUCCGCAUGACAUGAGGAUCACCCAUGUGUGCAUGCCCUUUGGUAGAGAAGGGAGUGAGA [eternacac ex5r4 #5] (Eterna round: R97, puzzle: Exclusion 5)”, the “apparent KD of MS2 coat protein” value (input ligand: FMN 200 uM) was 22.7 nM and the “apparent KD of MS2 coat protein” value (input ligand: none) is 24.4 nM.

As to “UCUCGCAGGCAAGGAUAUCCUACAUUGUUCUGGCCCGGGCAUGCUACAUGAGGAUCACCCAUGUGGGAGAAGGUGCGCCACGGC [Design 32] (Eterna round: R96, puzzle: Exclusion NG 2)”, the “apparent KD of MS2 coat protein” value amounted to 47.9 nM (input ligand: FMN 200 uM), 36 nM under setting [1] and 35.4 nM (input ligand: none).

For “UCUCGCUGGCGAGGAUAUCCUGUGCGGUUCCGGCUCGUGUCUGUUACAUGAGGAUCACCCAUGUGGGAGAAGGUGUCUGUGGCC [Design 96] (Eterna round: R96, puzzle: Exclusion NG 2)”, the “apparent KD of MS2 coat protein” value turned out to be 16.7 nM (input ligand: FMN 200 uM), 15.4 nM under setting [1] and 18.8 nM (input ligand: none).

Turning to “UCUGCUUUAGGAUAUACGAGAUCCUGCGAUGUACUCUUCGGACAUGAGGAUCACCCAUGUAGAAGGAAAGCAGG [Eternabot (L2) Solution 20] (Eterna round: R97, puzzle: Exclusion 2)”, the “apparent KD of MS2 coat protein” value (input ligand: FMN 200 uM) turned out to be 96.4 nM and the “apparent KD of MS2 coat protein” value (input ligand: none) is 12.2 nM.

With “UCUGUUUUGCGAGGAUAUCGACCAUUCCUCUUAACAUGAGGAUCACCCAUGUGCUAAUCCUACAACGAGAAGGCGCUCAUACUC [JR_ExcNG2_Sub066] (Eterna round: R96, puzzle: Exclusion NG 2)”, the “apparent KD of MS2 coat protein” value under setting [1] was found to be 195 nM.

For “UCUUACUGAGGAUAUACAUAGAUUUACAUGAGGAUCACCCAUGUUCCUCUAUGUAUAAAUGUAGAAGGCAGAAGAU [Mat - Exclusion 5 - JL Mod - D54] (Eterna round: R97, puzzle: Exclusion 5)”, the “apparent KD of MS2 coat protein” value is, setting by setting: (input ligand: FMN 200 uM) 72.9 nM; (input ligand: none) 18 nM.

Consider “UCUUGUUGUCCUUGAUAAUACAUGAGGAUCACCCAUGUUAUUUUGAUUAUGAUGUGUAAGUUUGUUGCUCGUUUUAU [JR_STOV1_Sub069] (Eterna round: R97, puzzle: Sensor, turn-off variant 1)”, for which the “apparent KD of MS2 coat protein” value is 27.7 nM (input ligand: FMN 200 uM) and 30.9 nM (input ligand: none).

As for “UCUUGUUGUCCUUGAUUUUACAUGAGGAUCACCCAUGUUAUUUUGAUUAUGAUGUGUAAGUUUGUUGCUCGUUUUAU [JR_STOV1_Sub068] (Eterna round: R97, puzzle: Sensor, turn-off variant 1)”, the “apparent KD of MS2 coat protein” value (input ligand: FMN 200 uM) is 49.8 nM and the “apparent KD of MS2 coat protein” value (input ligand: none) is 54.3 nM.

On to “UGAAACCUAGGAUAUACAUGAGGAUCACCCAUGUAAUGUAGUAUAGUAUAUGUAAGAUGUAGAAGGAGGAAUGU [LRO-Excl05-27-Smart Aleck] (Eterna round: R97, puzzle: Exclusion 3)”, for which the “apparent KD of MS2 coat protein” value runs as follows: (input ligand: FMN 200 uM) 30.9 nM; (input ligand: none) 34.9 nM.

As for “UGAAUACGUGUUAGGAUAUGGUUUGGUAUUUUAGAUUAGAAGGGACAUGAGGAUCACCCAUGUAAUUGAUAGGU [-13, -10.4 kcal, 30% A] (Eterna round: R97, puzzle: Brourd's mod of Exclusion 4)”, the “apparent KD of MS2 coat protein” value runs as follows: (input ligand: FMN 200 uM) 38 nM; (input ligand: none) 41.9 nM.

On to “UGAGAGAGUAUAGGAUAUUAGAGGAGAAUGGUGAUAGAGACAUGAGGAUCACCCAUGUGAGGAGAUAAGAAGGGUAAGAACUCA [AK ExNG2-V2-4] (Eterna round: R96, puzzle: Exclusion NG 2)”, for which the “apparent KD of MS2 coat protein” value runs as follows: (input ligand: FMN 200 uM) 452 nM; under setting [1], 292 nM; (input ligand: none) 435 nM.

Consider “UGAGAGCAAGGAUAUACGUUGGUGUAUACCCGGGUAUGUAUACAUGAGGAUCACCCAUGUAGAAGGUGCACAAA [EX2 B.1] (Eterna round: R97, puzzle: Exclusion 2)”, for which the “apparent KD of MS2 coat protein” value (input ligand: FMN 200 uM) was 120 nM and the “apparent KD of MS2 coat protein” value (input ligand: none) is 36 nM.

With “UGAGAGUGAGGAUAUACGUCGCUGGUCCGGAUGGACGCAUGACAUGAGGAUCACCCAUGUAGAAGGCAUUUCCC [Enxela Mod 6 - Jieux - Exclusion 2] (Eterna round: R97, puzzle: Exclusion 2)”, the “apparent KD of MS2 coat protein” value reads like this: (input ligand: FMN 200 uM) 75.2 nM; (input ligand: none) 26.9 nM.
